From US9314499

Target: tissue plasminogen activator (human) (UniProt P00750)
Assay: cell-based or functional assay

Chain of UniProt P00750 (P00750 36-562 limits assumed): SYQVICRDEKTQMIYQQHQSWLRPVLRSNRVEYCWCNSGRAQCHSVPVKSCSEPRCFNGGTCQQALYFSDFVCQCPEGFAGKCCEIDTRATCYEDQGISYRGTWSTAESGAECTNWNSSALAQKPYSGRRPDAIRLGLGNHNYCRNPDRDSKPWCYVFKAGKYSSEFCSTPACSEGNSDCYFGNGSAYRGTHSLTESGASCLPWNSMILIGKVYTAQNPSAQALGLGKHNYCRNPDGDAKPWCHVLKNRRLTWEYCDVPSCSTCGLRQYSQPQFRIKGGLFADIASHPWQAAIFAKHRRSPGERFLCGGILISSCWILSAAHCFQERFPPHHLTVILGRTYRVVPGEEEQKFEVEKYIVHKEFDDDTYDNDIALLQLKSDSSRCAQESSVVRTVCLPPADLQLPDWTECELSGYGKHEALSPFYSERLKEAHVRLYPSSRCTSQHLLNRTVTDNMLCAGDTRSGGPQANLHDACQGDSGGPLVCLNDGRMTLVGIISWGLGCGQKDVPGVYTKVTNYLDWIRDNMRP

in vitro plasmin-generating capability of tPA (plasmin activity assay): 4 fold
Substance: Histidine-tagged recombinant human Annexin A2 (from UniProt Q3ZCQ2 1-193)
